Assay results as given in patent US20180057604A1 (Genentech, published 2018).
Like-named read-outs stand apart in the source and are kept apart here.

Experiments:
murine BACE1 ECD [1] = target: T1, murine BACE1 ECD; assay: Octet, pH 5.0;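 note: antibodies captured on anti-human capture sensor tips, dissociation monitored in PBS with BSA buffer, kinetics fitted with a one-to-one binding model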
T1 construct: analyte of the Octet assay (200 nM) and enzyme of the first short substrate assay
Procedure: (§1) Anti-BACE1 antibodies were loaded onto anti-human capture (AHC) sensors (tips) followed by 60 seconds baseline in assay buffer. […] Tips were transferred to assay buffer for 5 minutes, 30 minutes, or 120 minutes depending on the off-rate, for off-rate measurement. Assay buffer was either PBS+0.1% BSA, pH 7.5; or PBS+0.1% BSA, pH 5.0. Kinetics were analyzed using a 1:1 binding model.

human BACE1 ECD [2] = target: T2, human BACE1 ECD; assay: Octet, pH 5.0;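 note: antibodies captured on anti-human capture sensor tips, dissociation monitored in PBS with BSA buffer, kinetics fitted with a one-to-one binding model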
T2 construct: analyte of the Octet assay (200 nM) and enzyme of the first short substrate assay; also called human BACE1 extracellular domain
T2 sequence (single chain, as listed by the source limits assumed): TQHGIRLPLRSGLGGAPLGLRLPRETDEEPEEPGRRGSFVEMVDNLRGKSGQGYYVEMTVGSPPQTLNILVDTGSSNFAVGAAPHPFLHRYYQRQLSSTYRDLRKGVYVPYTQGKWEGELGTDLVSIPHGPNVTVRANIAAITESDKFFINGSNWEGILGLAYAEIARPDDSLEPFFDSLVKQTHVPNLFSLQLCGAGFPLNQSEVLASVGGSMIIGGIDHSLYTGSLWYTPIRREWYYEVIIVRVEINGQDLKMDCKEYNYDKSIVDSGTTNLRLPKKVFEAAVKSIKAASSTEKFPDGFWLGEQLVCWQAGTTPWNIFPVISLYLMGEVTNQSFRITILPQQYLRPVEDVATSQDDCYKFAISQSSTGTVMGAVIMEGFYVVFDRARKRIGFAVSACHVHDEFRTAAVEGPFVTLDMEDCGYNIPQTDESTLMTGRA
Procedure: as §1

[3] = target: T3, BACE1 in primary mouse cortical neurons (mouse, UniProt P56818 46-501); assay: cell-based or functional assay
T3 sequence (P56818 46-501): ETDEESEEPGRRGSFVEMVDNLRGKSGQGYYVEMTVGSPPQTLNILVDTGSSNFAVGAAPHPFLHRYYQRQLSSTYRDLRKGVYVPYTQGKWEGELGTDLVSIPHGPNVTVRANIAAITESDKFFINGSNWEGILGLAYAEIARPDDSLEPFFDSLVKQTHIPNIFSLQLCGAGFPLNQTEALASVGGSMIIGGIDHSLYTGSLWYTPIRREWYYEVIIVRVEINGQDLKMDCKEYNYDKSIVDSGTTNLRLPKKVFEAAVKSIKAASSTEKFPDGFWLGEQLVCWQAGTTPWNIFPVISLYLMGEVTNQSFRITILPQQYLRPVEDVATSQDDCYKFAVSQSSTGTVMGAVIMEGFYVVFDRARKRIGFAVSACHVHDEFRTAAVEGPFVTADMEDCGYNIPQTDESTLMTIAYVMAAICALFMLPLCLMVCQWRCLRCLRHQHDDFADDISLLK

murine BACE1 ECD [4] = target: T1, murine BACE1 ECD; assay: Octet, pH 7.5;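 note: antibodies captured on anti-human capture sensor tips, dissociation monitored in PBS with BSA, Kd obtained from kinetic fit to a one-to-one binding model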
Procedure: as §1

human BACE1 ECD [5] = target: T2, human BACE1 ECD; assay: Octet, pH 7.5;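 note: antibodies captured on anti-human capture sensor tips, dissociation monitored in PBS with BSA, Kd obtained from kinetic fit to a one-to-one binding model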
Procedure: as §1

[6] = target: T3, BACE1 in primary mouse cortical neurons; assay: cell-based or functional assay; remark: listed apart in the source
[7] = target: T4, human TfR extracellular domain with N-terminal His tag (human, UniProt P02786 89-760); assay: SPR, TfR captured by anti-His, Fab injected;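 note: single cycle kinetics with a Fab dilution series, fitted by a one-to-one Langmuir model or a steady state model, KD taken as koff over kon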
T4 construct: Biotinylated in some assays; also called huTfR; HuTfR
T4 sequence (P02786 89-760 G142S): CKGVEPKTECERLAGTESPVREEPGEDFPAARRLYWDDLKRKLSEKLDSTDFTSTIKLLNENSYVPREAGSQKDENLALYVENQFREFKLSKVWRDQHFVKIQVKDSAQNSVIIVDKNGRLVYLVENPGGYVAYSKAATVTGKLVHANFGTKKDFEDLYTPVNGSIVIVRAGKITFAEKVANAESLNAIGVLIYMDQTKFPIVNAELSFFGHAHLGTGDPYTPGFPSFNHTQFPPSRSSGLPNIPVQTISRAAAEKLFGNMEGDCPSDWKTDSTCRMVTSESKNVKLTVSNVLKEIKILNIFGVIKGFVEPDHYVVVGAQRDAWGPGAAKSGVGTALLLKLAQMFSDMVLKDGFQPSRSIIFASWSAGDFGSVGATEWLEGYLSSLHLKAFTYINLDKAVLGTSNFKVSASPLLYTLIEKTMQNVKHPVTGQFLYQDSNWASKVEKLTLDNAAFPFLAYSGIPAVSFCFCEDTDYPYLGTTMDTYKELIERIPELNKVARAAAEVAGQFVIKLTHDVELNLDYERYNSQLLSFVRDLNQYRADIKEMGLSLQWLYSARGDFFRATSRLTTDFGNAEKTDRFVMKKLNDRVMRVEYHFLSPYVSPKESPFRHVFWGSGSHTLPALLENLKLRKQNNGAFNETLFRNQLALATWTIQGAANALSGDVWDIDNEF
Procedure: Antibody affinities were measured using surface plasmon resonance (“SPR”) (Biacore™, GE Healthcare). Anti-His antibody (Qiagen) was coupled onto four different flow cells of a BIACORE™ CM5 sensor chip (Biacore, Inc., Piscataway, N.J.) at between 6000 and 8000 RU. Immobilization was achieved by random coupling through amino groups using a protocol provided by the manufacturer. 10×HBS-P (Biacore, Inc., Piscataway, N.J.) was diluted in water and served as the dilution and running buffer. Purified human or cyno TfR was captured, followed by a 3-fold dilution series of IgG or Fab that was injected at a flow rate of 30 ml/min using the single cycle kinetics method. Affinity constants were determined using a simple 1:1 Langmuir binding model or using a steady state model when kₒₙ or koff was beyond the detection limit. The equilibrium dissociation constant (KD) was calculated as the ratio of association rate constant (kₒₙ) and dissociation rate constant (koff).
In both cases, the SPR experiments were performed as described above.

T1 sequence (single chain, as listed by the source limits assumed): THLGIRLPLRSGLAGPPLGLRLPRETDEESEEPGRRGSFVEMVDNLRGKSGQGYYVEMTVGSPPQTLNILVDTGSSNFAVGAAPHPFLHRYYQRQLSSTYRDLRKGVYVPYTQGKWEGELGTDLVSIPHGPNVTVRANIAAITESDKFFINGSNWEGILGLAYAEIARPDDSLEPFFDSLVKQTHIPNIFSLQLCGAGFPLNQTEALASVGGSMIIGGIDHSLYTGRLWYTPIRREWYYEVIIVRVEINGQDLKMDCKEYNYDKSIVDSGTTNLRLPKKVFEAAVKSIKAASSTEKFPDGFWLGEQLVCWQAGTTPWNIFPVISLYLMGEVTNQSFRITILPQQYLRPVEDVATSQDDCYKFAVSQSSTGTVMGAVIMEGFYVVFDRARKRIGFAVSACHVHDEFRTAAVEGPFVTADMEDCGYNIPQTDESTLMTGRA

| Kd (murine BACE1 ECD [1]) | Kd (human BACE1 ECD [2]) | IC50, Abeta x-40 in mouse cortical neurons [3] | maximal % inhibition of Abeta x-40 [3] | Kd (murine BACE1 ECD [4]) | Kd (human BACE1 ECD [5]) | IC50, Abeta x-40 in mouse cortical neurons [6] | maximal % inhibition of Abeta x-40 [6] | Kd [7] | koff [7] | kon [7] | Binder |
| --- | --- | --- | --- | --- | --- | --- | --- | --- | --- | --- | --- |
| < 0.29 nM | < 0.25 nM | 7.2 nM | 69% | < 0.29 nM | < 0.32 nM | – | – | – | – | – | 5987 (antibody, V domains shown, anti-BACE1 IgG) VH: QVQLVQSGAEVKKPGSSVKVSCKASGGTLSGYAISWVRQAPGQGLEWMGNIIPGFGTANYAQKSQGRVTITADESTSTAYMELSSLRSEDTAVYYCARSGGTRYGMLDVWGQGTMVTVSS VL: EIVMTQSPATLSVSPGERATLSCRASQSVSSNLAWYQQKPGQAPRLLIYGASTRATGIPARFSGSGSGTEFTLTISSLQSEDFAVYYCQQLFLWPPRTFGGGTKVEIK |
| < 0.4 nM | < 0.26 nM | 5.71 nM | 82% | < 0.39 nM | < 0.39 nM | – | – | – | – | – | 6273 (antibody, V domains shown, anti-BACE1 IgG) VH: QVQLVQSGAEVKKPGSSVKVSCKASGGTFSGYGISWVRQAPGQGLEWMGNIIPGFGTANYAQKFQGRVTITADESTSTAYMELSSLRSEDTAVYYCARSGGTKYGMLDVWGQGTMVTVSS VL: EIVMTQSPATLSVSPGERATLSCRASQSVSSNIAWYQQKPGQAPRLLIYGASTRATGIPARFSGSGSGTEFTLTISSLQSEDFAVYYCQQLLLWPPRTFGGGTKVEIK |
| < 0.4 nM | < 0.34 nM | – | – | < 0.68 nM | < 0.8 nM | 9.1 nM | 71% | – | – | – | 6300 (antibody, V domains shown, anti-BACE1 IgG) VH: QVQLVQSGAEVKKPGSSVKVSCKASGGTLSGYAISWVRQAPGQGLEWMGNIIPGFGTANYAQKSQGRVTITADESTSTAYMELSSLRSEDTAVYYCARSGGTRYGMLDVWGQGTMVTVSS VL: EIVLTQSPATLSVSPGERATLSCRASQSVGSNLAWYQQKPGQAPRLLIYGASTRATGIPARFSGSGSGTEFTLTISSLQSEDFAVYYCQQSFLWPPRTFGGGTKVEIK |
| < 0.54 nM | < 0.41 nM | 7.4 nM | 81% | < 0.62 nM | < 0.59 nM | – | – | – | – | – | 6276 (antibody, V domains shown, anti-BACE1 IgG) VH: QVQLVQSGAEVKKPGSSVKVSCKASGGTFRGYAISWVRQAPGQGLEWMGNIIPGLSTANYAQKFQGRVTITADESTSTAYMELSSLRSEDTAVYYCARSGGTKYGMLDVWGQGTMVTVSS VL: EIVMTQSPATLSVSPGERATLSCRASQSVSSNLAWYQQKPGQAPRLLIYGASTRATGIPARFSGSGSGTEFTLTISSLQSEDFAVYYCQQLILWPPRTFGGGTKVEIK |
| < 0.31 nM | < 0.24 nM | 1.77 nM | 83% | < 0.31 nM | < 0.31 nM | – | – | – | – | – | 6271 (antibody, V domains shown, anti-BACE1 IgG) VH: QVQLVQSGAEVKKPGSSVKVSCKASGGTISGYGISWVRQAPGQGLEWMGNIIPGFGTANYAQKFQGRVTITADESTSTAYMELSSLRSEDTAVYYCARSGGTKYGMLDVWGQGTMVTVSS VL: EIVMTQSPATLSVSPGERATLSCRASQSVSSNLAWYQQKPGQAPRLLIYGASTRATGIPARFSGSGSGTEFTLTISSLQSEDFAVYYCQQLILWPPRTFGGGTKVEIK |
| < 0.29 nM | < 0.25 nM | 3.55 nM | 75% | < 0.29 nM | < 0.29 nM | – | – | – | – | – | 5988 (antibody, V domains shown, anti-BACE1 IgG) VH: QVQLVQSGAEVKKPGSSVKVSCKASGGTLSGYAISWVRQAPGQGLEWMGNIIPGFGTANYAQKSQGRVTITADESTSTAYMELSSLRSEDTAVYYCARSGGTRYGMLDVWGQGTMVTVSS VL: GIVMTQSPATLSVSPGERATLSCRASQSVGSNLAWYQQKPGQAPRLLIYGASTRATGIPARFSGSGSGTEFTLTISSLQSEDFAVYYCQQLYTWPPRTFGGGTKVEIK |
| < 0.4 nM | < 0.39 nM | 43.6 nM | 82% | < 0.41 nM | < 0.87 nM | – | – | – | – | – | 6272 (antibody, V domains shown, anti-BACE1 IgG) VH: QVQLVQSGAEVKKPGSSVKVSCKASGGTFSGYGISWVRQAPGQGLEWMGNIIPGFGTANYAQKFQGRVTITADESTSTAYMELSSLRSEDTAVYYCARSGGTKYGMLDVWGQGTMVTVSS VL: EIVMTQSPATLSVSPGERATLSCRASQSVSSNLAWYQQKPGQAPRLLIYGASTRATGIPARFSGSGSGTEFTLTISSLQSEDFAVYYCQQLFLWPPRTFGGGTKVEIK |
| – | – | – | – | – | – | – | – | 0.686 nM | 0.00153 s⁻¹ | 2.24e+06 M⁻¹ s⁻¹ | Hu7A4.v5.Fab (Fab, V domains shown, Fab) VH: EVQLVQSGAEVKKPGASVKVSCKASGYTFTDYAMHWVRQAPGQGLEWMGGISTYFGRTNYNQKFKGRVTMTRDTSISTAYMELSRLRSDDTAVYYCARGLSGNYVMDYWGQGTTVTVSS VL: DIVMTQSPDSLAVSLGERATINCRASESVDSYGNSFMHWYQQKPGQPPKLLIYRASNLESGIPDRFSGSGSGTDFTLTISSLQAEDVAVYYCQQSNEGPPTFGQGTKLEIK |
| – | – | – | – | – | – | – | – | 1.15 nM | 0.00107 s⁻¹ | 928000 M⁻¹ s⁻¹ | Hu7A4.v8.Fab (Fab, V domains shown, Fab) VH: EVQLVQSGAEVKKPGASVKVSCKGSGYTFTDYAMHWVRQAPGQGLEWMGGISTYFGRTNYNQKFKGRVTMTVDTSISTAYMELSRLRSDDTAVYYCARGLSGNYVMDYWGQGTTVTVSS VL: DIVMTQSPDSLAVSLGERATINCRASESVDSYGNSFMHWYQQKPGQPPKLLIYRASNLESGIPDRFSGSGSGTDFTLTISSLQAEDVAVYYCQQSNEGPPTFGQGTKLEIK |
| < 0.23 nM | < 0.18 nM | 0.53 nM | 61% | < 0.18 nM | < 0.18 nM | – | – | – | – | – | 5990 (antibody, V domains shown, anti-BACE1 IgG) VH: QLQLQESGPGLVKPSETLSLTCTVSGGSISWSSYYWSWIRQPPGKGLEWIGSIYRSGRTYYNPSLKSRVTISVDTSKNQFSLKLSSVTAADTAVYYCARVGHGINYFDLWGRGTLVTVSS VL: EIVLTQSPATLSLSPGERATLSCRASRSVNSYLAWYQQKPGQAPRLLIYDASKRATGIPARFSGSGSGTDFTLTISSLEPEDFAVYYCQQVYTWPPRTFGGGTKVEIK |
| < 0.3 nM | < 0.26 nM | 1.41 nM | 68% | < 0.26 nM | < 0.28 nM | – | – | – | – | – | 6291 (antibody, V domains shown, anti-BACE1 IgG) VH: QLQLQESGPGLVKPSETLSLTCTVSGGSISSSSYYWGWIRQPPGKGLEWIGMIYYSGSTWYNPSLKSRVTISVDTSKNQFSLKLSSVTAADTAVYYCARVGHGVSYFDLWGRGTLVTVSS VL: EIVLTQSPATLSLSPGERATLSCRASQSVSSYLAWYQQKPGQAPRLLIYGASKRATGIPARFSGSGSGTDFTLTISSLEPEDFAVYYCQQVYTWPPRTFGGGTKVEIK |
| < 0.34 nM | < 0.27 nM | 3.53 nM | 59% | < 0.3 nM | < 0.3 nM | – | – | – | – | – | 6294 (antibody, V domains shown, anti-BACE1 IgG) VH: QLQLQESGPGLVKPSETLSLTCTVSGGSISSSSHYWGWIRQPPGKGLEWIGMIYYSGSTWYNPSLKSRVTISVDTSKNQFSLKLSSVTAADTAVYYCARVGHGVSYFDLWGRGTLVTVSS VL: EIVLTQSPATLSLSPGERATLSCRASQSVSSYLAWYQQKPGQAPRLLIYDASKRATGIPARFSGSGSGTDFTLTISSLEPEDFAVYYCQQVYTWPPRTFGGGTKVEIK |
| 0.41 nM | 0.43 nM | 15.4 nM | 57% | < 0.28 nM | 0.32 nM | – | – | – | – | – | 6285 (antibody, V domains shown, anti-BACE1 IgG) VH: QLQLQESGPGLVKPSETLSLTCTVSGGSTSSSSYYWGWIRQPPGKGLEWIGSIYRSGSTYYNPSLKSRVTISVDTSKNQFSLKLSSVTAADTAVYYCARVGHGISYFDLWGRGTLVTVSS VL: EIVLTQSPATLSLSPGERATLSCRASQSVSSYLAWYQQKPGQAPRLLIYDASSRATGIPARFSGSGSGTDFTLTISSLEPEDFAVYYCQQSLTWPPRTFGGGTKVEIK |
| 0.4 nM | 0.32 nM | 1.95 nM | 67% | 0.46 nM | 0.39 nM | – | – | – | – | – | 6298 (antibody, V domains shown, anti-BACE1 IgG) VH: QLQLQESGPGLVKPSETLSLTCTVSGGSISWSSYYWSWIRQPPGKGLEWIGNIYYSGSTYYNPSLKSRVTISVDTSKNQFSLKLSSVTAADTAVYYCARLGHGYNYFDLWGRGTLVTVSS VL: EIVLTQSPATLSLSPGERATLSCRASQSVSSYLAWFQQKPGQAPRLLIYDASNRATGIPARFSGSGSGTDFTLTISSLEPEDFAVYYCQQVYVWPPRTFGGGTKVEIK |
| < 0.31 nM | 0.31 nM | 8.29 nM | 65% | < 0.32 nM | < 0.32 nM | – | – | – | – | – | 6280 (antibody, V domains shown, anti-BACE1 IgG) VH: QLQLQESGPGLVKPSETLSLTCTVSGGSTSSSSYYWGWIRQPPGKGLEWIGSIYRSGSTYYNPSFKSRVTISVDTSKNQFSLKLSSVTAADTAVYYCARVGHGISYFDLWGRGTLVTVSS VL: EIVLTQSPATLSLSPGERATLSCRASQSVSSYLAWYQQKPGQAPRLLIYDASNRATGIPARFSGSGSGTDFTLTISSLEPEDFAVYYCQQSLTWPPRTFGGGTKVEIK |
